Data: publication PMC3903133, “Single-molecule analysis reveals self assembly and nanoscale segregation of two distinct cavin subcomplexes on caveolae” (eLife, 2014)
Values joined by “and” are separate entries in the source; they are usually repeats but may differ in a detail not shown here. Equal values may be shown once.

B1: cavin1-GFP (natural protein, UniProt Q6NZI2 1-390, looked up)
chain: MEDPTLYIVERPLPGYPDAEAPEPSSAGAQAAEEPSGAGSEELIKSDQVNGVLVLSLLDKIIGAVDQIQLTQAQLEERQAEMEGAVQSIQGELSKLGKAHATTSNTVSKLLEKVRKVSVNVKTVRGSLERQAGQIKKLEVNEAELLRRRNFKVMIYQDEVKLPAKLSISKSLKESEALPEKEGEELGEGERPEEDAAALELSSDEAVEVEEVIEESRAERIKRSGLRRVDDFKKAFSKEKMEKTKVRTRENLEKTRLKTKENLEKTRHTLEKRMNKLGTRLVPAERREKLKTSRDKLRKSFTPDHVVYARSKTAVYKVPPFTFHVKKIREGQVEVLKATEMVEVGADDDEGGAERGEAGDLRRGSSPDVHALLEITEESDAVLVDKSDSD
notes: cavin1 / polymerase transcript release factor (PTRF); construct cloned as described in Hill et al. (2008); The only hint on species is the keyword 'human'; the cDNA may be of mouse (surmise); also called polymerase transcript release factor; PTRF; source: MCF-7 or MDCK cells, transfected (Lipofectamine 2000), in supernatant of mechanically lysed cells
B5: cavin2-GFP (natural protein, UniProt O95810 1-425, looked up)
chain: MGEDAAQAEKFQHPGSDMRQEKPSSPSPMPSSTPSPSLNLGNTEEAIRDNSQVNAVTVLTLLDKLVNMLDAVQENQHKMEQRQISLEGSVKGIQNDLTKLSKYQASTSNTVSKLLEKSRKVSAHTRAVKERMDRQCAQVKRLENNHAQLLRRNHFKVLIFQEENEIPASVFVKQPVSGAVEGKEELPDENKSLEETLHTVDLSSDDDLPHDEEALEDSAEEKVEESRAEKIKRSSLKKVDSLKKAFSRQNIEKKMNKLGTKIVSVERREKIKKSLTSNHQKISSGKSSPFKVSPLTFGRKKVREGESHAENETKSEDLPSSEQMPNDQEEESFAEGHSEASLASALVEGEIAEEAAEKATSRGSNSGMDSNIDLTIVEDEEEESVALEQAQKVRYEGSYALTSEEAERSDGDPVQPAVLQVHQTS
notes: cavin2 / SDPR (serum deprivation response protein); construct cloned as described in Hill et al. (2008); The only hint on species is the keyword 'human'; the cDNA may be of mouse (surmise); also called SDPR; serum deprivation response protein; source: MCF-7 or MDCK cells, transfected (Lipofectamine 2000), in supernatant of mechanically lysed cells

Tests used:
[1] = target: the molecule itself; experiment: single-molecule brightness analysis; burst brightness of fluorescent cavins in supernatant of MCF-7 cells without CAV1, calibrated on monomeric GFP (maximum 100 photons)
[2] = target: the molecule itself; experiment: single-molecule brightness analysis; burst brightness in supernatant of MCF-7 cells transfected with CAV1-GFP, or with cavin1-GFP and untagged CAV1; calibrated on a single GFP
CAV1 untagged = target: T1, CAV1 untagged (UniProt Q03135 1-178); experiment: as above; conditions: partners not purified
T1 construct: caveolin-1 (CAV1), untagged; construct cloned as described in Hill et al. (2008); also called caveolin-1; source: MCF-7 cells, transfected, in post nuclear supernatant
T1 sequence (looked up): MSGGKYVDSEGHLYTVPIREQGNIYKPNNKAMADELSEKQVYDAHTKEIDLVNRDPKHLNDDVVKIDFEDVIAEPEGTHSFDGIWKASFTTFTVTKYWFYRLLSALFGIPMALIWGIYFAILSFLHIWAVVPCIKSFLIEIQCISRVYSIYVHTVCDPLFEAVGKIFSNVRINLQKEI

cavin1-GFP = target: B1; experiment: single-molecule brightness analysis; burst brightness of oligomers in the cytoplasmic fraction of MDCK cells after hypo-osmotic treatment (20 min); conditions: partners not purified
CAV1-GFP = target: T2, CAV1-GFP (UniProt Q03135 1-178); experiment: single-molecule two-colour fluorescence coincidence; MCF-7 cells expressing CAV1-GFP and cavin1-Cherry; caveolae in the post nuclear supernatant; conditions: partners not purified
T2 construct: caveolin-1 (CAV1); construct cloned as described in Hill et al. (2008); membrane protein, seen on caveolae in the cell extract; also called caveolin-1; Caveolin-1; source: MCF-7 cells, transfected, in post nuclear supernatant
T2 sequence (looked up): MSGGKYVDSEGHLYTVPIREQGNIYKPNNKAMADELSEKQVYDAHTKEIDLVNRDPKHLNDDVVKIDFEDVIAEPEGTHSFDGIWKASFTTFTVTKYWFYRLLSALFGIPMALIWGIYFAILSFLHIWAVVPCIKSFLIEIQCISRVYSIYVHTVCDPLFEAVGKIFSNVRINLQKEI

cavin2-GFP = target: B5; experiment: single-molecule two-colour fluorescence coincidence; MDCK cells (endogenous cavin1 and CAV1) co-transfected; cytoplasmic fraction after hypo-osmotic treatment (DMEM 1:10 in water, 20 min, 37°C); conditions: partners not purified
cavin3-GFP = target: T3, cavin3-GFP (UniProt Q969G5 1-261); experiment: as above; conditions: partners not purified
T3 construct: construct cloned as described in Hill et al. (2008); The only hint on species is the keyword 'human'; the cDNA may be of mouse (surmise); also called SRBC; source: MCF-7, MDCK or HeLa cells, transfected (Lipofectamine 2000), in supernatant of mechanically lysed cells
T3 sequence (looked up): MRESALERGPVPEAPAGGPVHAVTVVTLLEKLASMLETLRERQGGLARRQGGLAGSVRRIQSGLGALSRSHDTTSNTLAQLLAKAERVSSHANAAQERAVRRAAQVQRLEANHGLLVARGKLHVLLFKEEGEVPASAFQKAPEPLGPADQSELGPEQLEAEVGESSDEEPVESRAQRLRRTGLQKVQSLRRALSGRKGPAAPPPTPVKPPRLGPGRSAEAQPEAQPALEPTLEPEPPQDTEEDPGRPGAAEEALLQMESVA

cavin1-GFP (cell-free) = target: T4, cavin1-GFP (cell-free) (UniProt Q6NZI2 1-390); experiment: single-molecule two-colour fluorescence coincidence; co-expression in the Leishmania tarentolae cell-free system at DNA ratios from 100% GFP to 100% Cherry; >1000 bursts for each ratio; conditions: partners not purified
T4 construct: cavin1 / polymerase transcript release factor (PTRF); ORF in a Gateway DNA template for cell-free expression; also called PTRF; source: Leishmania tarentolae cell-free system (LTE), in vitro translated, not purified; not shown: eGFP, N-terminal, kept
T4 sequence (looked up): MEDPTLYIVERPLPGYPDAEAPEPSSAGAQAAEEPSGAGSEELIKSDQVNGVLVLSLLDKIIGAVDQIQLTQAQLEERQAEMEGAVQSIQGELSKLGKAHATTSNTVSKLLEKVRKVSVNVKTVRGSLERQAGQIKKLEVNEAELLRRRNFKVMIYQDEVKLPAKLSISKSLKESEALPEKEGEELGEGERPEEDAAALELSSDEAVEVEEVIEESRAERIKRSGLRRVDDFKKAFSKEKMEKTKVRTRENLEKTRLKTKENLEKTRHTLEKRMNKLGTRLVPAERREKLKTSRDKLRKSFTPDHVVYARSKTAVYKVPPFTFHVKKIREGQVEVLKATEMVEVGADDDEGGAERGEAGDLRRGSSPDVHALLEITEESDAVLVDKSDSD

Binder: B1
stoichiometry N [1]: 50 ± 5 proteins per complex
stoichiometry N [2]: 40 to 50 cavin1 per caveola
brightness of CAV1-GFP over cavin1-GFP (CAV1 untagged): 3.5 fold

B2: cavin1-Cherry (natural protein, UniProt Q6NZI2 1-390, looked up)
chain: MEDPTLYIVERPLPGYPDAEAPEPSSAGAQAAEEPSGAGSEELIKSDQVNGVLVLSLLDKIIGAVDQIQLTQAQLEERQAEMEGAVQSIQGELSKLGKAHATTSNTVSKLLEKVRKVSVNVKTVRGSLERQAGQIKKLEVNEAELLRRRNFKVMIYQDEVKLPAKLSISKSLKESEALPEKEGEELGEGERPEEDAAALELSSDEAVEVEEVIEESRAERIKRSGLRRVDDFKKAFSKEKMEKTKVRTRENLEKTRLKTKENLEKTRHTLEKRMNKLGTRLVPAERREKLKTSRDKLRKSFTPDHVVYARSKTAVYKVPPFTFHVKKIREGQVEVLKATEMVEVGADDDEGGAERGEAGDLRRGSSPDVHALLEITEESDAVLVDKSDSD
notes: cavin1 / polymerase transcript release factor (PTRF); construct cloned as described in Hill et al. (2008); The only hint on species is the keyword 'human'; the cDNA may be of mouse (surmise); also called PTRF; source: MCF-7 or MDCK cells, transfected (Lipofectamine 2000), in supernatant of mechanically lysed cells
stoichiometry N (cavin1-GFP): 9 cavin1 proteins per oligomer and 8 cavin1 proteins per oligomer to 10 cavin1 proteins per oligomer (2×)
stoichiometry N (CAV1-GFP): 3 CAV1 per cavin1 and 4 CAV1 per cavin1
stoichiometry N (cavin2-GFP): 2 cavin1 per cavin2
stoichiometry N (cavin3-GFP): ~2 cavin1 per cavin3

B3: cavin3-Cherry-myc (cell-free) (natural protein, UniProt Q969G5 1-261, looked up)
chain: MRESALERGPVPEAPAGGPVHAVTVVTLLEKLASMLETLRERQGGLARRQGGLAGSVRRIQSGLGALSRSHDTTSNTLAQLLAKAERVSSHANAAQERAVRRAAQVQRLEANHGLLVARGKLHVLLFKEEGEVPASAFQKAPEPLGPADQSELGPEQLEAEVGESSDEEPVESRAQRLRRTGLQKVQSLRRALSGRKGPAAPPPTPVKPPRLGPGRSAEAQPEAQPALEPTLEPEPPQDTEEDPGRPGAAEEALLQMESVA
notes: cavin3 / SRBC; ORF in a Gateway DNA template for cell-free expression; also called SRBC; cavin3-myc; source: Leishmania tarentolae cell-free system (LTE), in vitro translated, not purified; not shown: mCherry, C-terminal, kept; Myc, C-terminal, kept
stoichiometry N (cavin1-GFP (cell-free)): 3 cavin1 per cavin3

B4: cavin3-Cherry (natural protein, UniProt Q969G5 1-261, looked up)
chain: MRESALERGPVPEAPAGGPVHAVTVVTLLEKLASMLETLRERQGGLARRQGGLAGSVRRIQSGLGALSRSHDTTSNTLAQLLAKAERVSSHANAAQERAVRRAAQVQRLEANHGLLVARGKLHVLLFKEEGEVPASAFQKAPEPLGPADQSELGPEQLEAEVGESSDEEPVESRAQRLRRTGLQKVQSLRRALSGRKGPAAPPPTPVKPPRLGPGRSAEAQPEAQPALEPTLEPEPPQDTEEDPGRPGAAEEALLQMESVA
notes: construct cloned as described in Hill et al. (2008); The only hint on species is the keyword 'human'; the cDNA may be of mouse (surmise); also called SRBC; C3-C; source: MCF-7 or MDCK cells, transfected (Lipofectamine 2000), in supernatant of mechanically lysed cells
stoichiometry N [1]: ~50 monomers

Binder: B5
stoichiometry N [1]: ~50 monomers
